How the values were obtained:
[1] = 0.146 mg CNP-38 eq/kg
Experimental: Plasma total CNP-38 concentrations (conjugated and released CNP-38) were determined by quantification of the N-terminal signature peptide (sequence: […]) and C-terminal signature peptide (sequence: […]) after tryptic digestion.
LC-MS analysis was carried out by using an Agilent 1290 UPLC coupled to an Agilent 6550 iFunnel Q-TOF mass spectrometer via an ESI probe. Chromatography was performed on a Waters Acquity BEH300 C18 analytical column (50×2.1 mm I.D., 1.7 μm particle size) with pre-filter at a flow rate of 0.25 mL/min (T=25° C.). Water (UPLC grade) containing 0.2% formic acid (v/v) was used as mobile phase A and acetonitrile (UPLC grade) with 0.2% formic acid as mobile phase B. The gradient system comprised a short isocratic step at the initial parameters of 0.1% B for 3.0 min followed by a linear increase from 0.1% B to 16% B in 17 min. Mass analysis was performed in the single ion monitoring (SIM) mode, monitoring the ions m/z 482.75 [M+2H]^2+ (N-terminal) and m/z 824.36 [M+H]^1+ (C-terminal). As internal standard deuterated CNP-38 peptide was used.
Calibration standards of CNP-38 conjugate in blank plasma were prepared as follows: The thawed Li-heparin cynomolgous plasma was first homogenized, then centrifuged for 5 minutes. […] These solutions were used for the generation of a calibration curve.
For sample preparation, protein precipitation was carried out by addition of 300 μL of pre-cooled (0° C.) methanol to 100 μL of the plasma sample. 200 μL of the supernatant were transferred into a new well-plate and evaporated to dryness (under a gentle nitrogen stream at 35° C.). 100 μL of reconstitution solvent (Thermo digestion buffer, order number 60109-101, Thermo Fisher Scientific GmbH, Dreieich, Germany) were used to dissolve the residue. 20 μg of trypsin (order number V5111, Promega GmbH, Mannheim, Germany) were dissolved in 20 μL of 10 mM acetic acid. 2 μL of the trypsin solution were added to each cavity.
After 4 hours incubation at 37° C. (water bath), 5 μL of a 0.5 M TCEP solution were added to each cavity and incubated again for 5 min at 96° C. After the samples had cooled to room temperature, 3 μL acetonitrile were added. The eluates were transferred into vials. 10 μL were injected into the UPLC-MS system.
Male cynomolgus monkeys (2-4 years old, 3-5 kg) received either a single subcutaneous administration (n=3 animals) of compound 10f or a single subcutaneous (n=3 animals) administration of 11i at a dose of 0.146 mg CNP-38 eq/kg. Blood samples were collected up to 168 h post dose, and plasma was generated. Plasma levels of total CNP-38 content were analyzed as described in example 24. In order to analyze the plasma content of free CNP-38, the blood samples were acidified after withdrawal by adding 20 vol % of 0.5 M sodium citrate buffer pH 4 to stop further CNP-38 release from the conjugate. Free CNP-38 levels in plasma can e.g. be determined by ELISA using a CNP antibody that binds to the ring region of CNP, as described in the literature (U.S. Pat. No. 8,377,884 B2), or by LC-MS/MS.

[2] = Evaluation of cardiovascular effects in the conscious telemetered mouse (subcutaneous administration); type: in vivo, Crl:CD1(ICR) mice; conditions: for MAP: mean ± SD, n = 4
Text: The purpose of this study was to evaluate the haemodynamic side effects of 11i at dose level equivalent to a CNP-38 dose level eliciting haemodynamic side effects (decrease in blood pressure) in the telemetered mouse.
Male Crl:CD1(ICR) mice (age range 8-13 weeks and body weight range 27.3-35.6 g at start of dosing) were surgically implanted with a TA11PA-C10 telemetry transmitter (Data Sciences International (DSI)) in the carotid artery. The body of the transmitter was placed subcutaneously in the lateral flank of the mouse. The mice were dosed subcutaneously in a latin square crossover design with at least 72 hours between dosing occasions. Mice were dosed with 1) vehicle (10 mM succinate, 46.0 g/L mannitol, pH 4.00), 2) CNP-38 (800 μg CNP-38/kg, 10 mM succinate, 46.0 g/L mannitol, pH 4.00) or 3) 11i (800 μg CNP-38 eq/kg, 10 mM succinate, 46.0 g/L mannitol, pH 4.00). At least four mice were included at each dose level. Blood pressure (systolic (SAP), diastolic (DAP) and mean (MAP) and heart rate (HR, derived from blood pressure), were recorded using a digital data capture system linked with a DSITM Ponemah data acquisition and analysis system. The capture system allowed recording of the cardiovascular parameters whilst the mice were in individual cages. On the day of each test session the animals were weighed and a predose recording was performed for at least 60 min prior to dosing. Each mouse was returned to the home cage and the cardiovascular parameters were recorded for approximately 48 hours postdose. Blood pressure and HR were reported at the following time points: −30, −20, −10, 5, 15 and 30 min postdose and 1, 2, 6, 12, 18, 24, 30, 36, 42 and 48 hours postdose. Each time point was presented as the average value of five minute's recording prior to the time point. The monitoring period was selected to cover exposure to the test items both prior to and after Tmax.

NPR-B receptor = biological target: T1, NPR-B receptor (Mus musculus, UniProt Q6VVW5); experiment: Functional cGMP stimulation in NIH-3T3 cells with CNP variants; type: cell-based, murine; conditions: residual NPR-B activity vs non-PEGylated CNP-38, cGMP
T1 construct: These cells express endogenously the NPR-B receptor on the cell surface; endogenous in cells; host or cells: NIH-3T3 (murine embryo fibroblast)
T1 sequence (Q6VVW5 23-1047 limits assumed): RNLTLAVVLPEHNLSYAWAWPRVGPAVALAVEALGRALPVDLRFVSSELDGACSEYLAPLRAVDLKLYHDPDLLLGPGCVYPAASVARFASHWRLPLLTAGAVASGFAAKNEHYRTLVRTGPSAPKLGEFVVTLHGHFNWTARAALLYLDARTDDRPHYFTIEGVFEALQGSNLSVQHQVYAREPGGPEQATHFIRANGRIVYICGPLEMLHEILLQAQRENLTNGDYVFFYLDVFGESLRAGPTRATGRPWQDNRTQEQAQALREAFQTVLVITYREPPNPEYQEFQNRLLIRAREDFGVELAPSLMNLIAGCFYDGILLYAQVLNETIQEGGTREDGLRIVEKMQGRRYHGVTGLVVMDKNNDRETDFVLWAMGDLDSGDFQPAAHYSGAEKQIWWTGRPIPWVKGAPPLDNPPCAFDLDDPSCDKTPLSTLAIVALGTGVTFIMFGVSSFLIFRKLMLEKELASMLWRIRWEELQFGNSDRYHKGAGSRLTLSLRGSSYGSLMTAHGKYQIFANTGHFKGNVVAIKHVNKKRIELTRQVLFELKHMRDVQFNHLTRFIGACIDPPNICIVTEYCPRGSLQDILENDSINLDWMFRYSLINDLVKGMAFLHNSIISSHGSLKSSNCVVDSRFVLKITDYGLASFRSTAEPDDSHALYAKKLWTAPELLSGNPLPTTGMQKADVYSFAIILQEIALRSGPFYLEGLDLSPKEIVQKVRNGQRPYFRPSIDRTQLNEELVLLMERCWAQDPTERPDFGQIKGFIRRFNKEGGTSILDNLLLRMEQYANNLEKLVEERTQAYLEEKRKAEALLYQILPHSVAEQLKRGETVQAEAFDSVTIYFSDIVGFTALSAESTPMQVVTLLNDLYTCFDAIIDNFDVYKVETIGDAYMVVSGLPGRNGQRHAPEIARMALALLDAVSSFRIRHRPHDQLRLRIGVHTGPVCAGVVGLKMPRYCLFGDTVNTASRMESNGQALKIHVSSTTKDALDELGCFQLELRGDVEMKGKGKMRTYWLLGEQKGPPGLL
Experimental: As used herein “EC50” with regard to controlled-release CNP agonist and CNP agonist refers to the concentration of controlled-release CNP agonist and CNP agonist with which a half-maximum cGMP production of NPR-B is elicited. NPR-B activity in the form of its EC50 of the controlled-release CNP agonist, of the released CNP agonist and of CNP-22 is measured by cultivating NIH-3T3 (Murine Embryo Fibroblast cell line) cells which express NPR-B on their cell surface, incubating the cells with the controlled-release CNP agonist, the corresponding released CNP agonist or CNP-22, respectively, and determining the intracellular production of the second messenger cGMP with a standard cGMP assay. In particular the assay is performed as follows: • (1) murine NIH-3T3 cells expressing endogenous NPR-B are cultivated in DMEM F-12 medium with 5% FBS and 5 mM glutamine at 37° C. and 5% CO2; • (2) for each assay 50,000 cells are resuspended in Dulbecco's PBS with IBMX and incubated with either the controlled-release CNP agonist, the corresponding released CNP agonist or CNP-22; each in different concentrations; • (3) after incubating for 30 min at 37° C. and 5% CO2, the cells are lysed and cGMP levels are determined; and • (4) generating an EC50 value from the determined cGMP levels.
Functional activity of CNP variants were determined in a cell-based assay with NIH-3T3 cells (Murine Embryo Fibroblast cell line). These cells express endogenously the NPR-B receptor on the cell surface. Stimulation of the NPR-B receptor with CNP leads to intracellular production of the second messenger cGMP which is detected with a commercially available cGMP assay. NIH-3T3 cells were routinely cultured in DMEM F-12 medium with 5% FBS and 5 mM glutamine at 37° C. and 5% CO2. For each assay, 50,000 cells were resuspended in stimulation buffer (Dulbecco's PBS with IBMX) and incubated with the CNP variants in different concentrations. CNP (dilutions were made in PBS with 0.2% BSA). After incubation of 30 min at 37° C. and 5% CO2, the cells were lyzed and cGMP levels were determined with a commercially available cGMP TR-FRET assay (Cisbio, cGMP kit, Cat. No. 62GM2PEB). PEGylated CNP variants were always characterized in comparison with the non-PEGylated version in the same experiment batch. If possible, evaluation of the residual activity was done via the relative EC50-parameter of the resulting dose-response curve (restricted model with common slope).
11i was incubated under physiological conditions (1 mg CNP-38 eq/mL), as described in Example 20. After 7 d, released CNP-38 was isolated by RP-HPLC and analyzed for bioactivity as described in Example 21.

NPR-C = biological target: T2, NPR-C (Homo sapiens, UniProt P17342); experiment: NPR-C affinity assay; type: binding; conditions: residual NPR-C affinity, NPR-C expressing Hek293 cells, competition with fluorescein-labelled CNP 27d
T2 construct: expressed in transfected cells; host or cells: Hek293, lentiviral transduction, CMV promoter, puromycin selection
T2 sequence (P17342 27-541): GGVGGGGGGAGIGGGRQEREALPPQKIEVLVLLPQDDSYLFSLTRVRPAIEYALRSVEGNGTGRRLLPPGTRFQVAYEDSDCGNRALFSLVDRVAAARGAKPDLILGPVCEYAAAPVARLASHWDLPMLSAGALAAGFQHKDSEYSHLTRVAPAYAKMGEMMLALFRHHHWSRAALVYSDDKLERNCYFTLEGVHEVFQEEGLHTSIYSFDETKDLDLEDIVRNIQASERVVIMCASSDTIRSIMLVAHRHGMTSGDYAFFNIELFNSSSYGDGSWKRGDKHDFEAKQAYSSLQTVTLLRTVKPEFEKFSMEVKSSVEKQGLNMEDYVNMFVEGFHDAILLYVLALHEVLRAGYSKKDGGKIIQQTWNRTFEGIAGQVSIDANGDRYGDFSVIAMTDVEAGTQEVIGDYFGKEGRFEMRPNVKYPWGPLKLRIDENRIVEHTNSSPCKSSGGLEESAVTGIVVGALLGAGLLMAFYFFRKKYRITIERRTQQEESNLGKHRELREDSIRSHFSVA

Reversible Lys26 CNP-38 PEG4×10 kDa Conjugate [Compound 11i]
dose site reactions ([1]; single sc): No dose site reactions were observed
terminal half life ([1]; single sc, C-terminal and N-terminal peptide): 72 to 96 h
total CNP-38 plasma level after 168 h ([1]; single sc, C-terminal peptide): ca. 30 % of cmax
total CNP-38 tmax ([1]; single subcutaneous administration): 24 h
HR ([2]; 800 μg CNP-38 (eq)/kg sc): not impacted
MAP versus vehicle at the remaining ten time points ([2]; 1 to 48 hours postdose, 800 μg CNP-38 (eq)/kg sc): no difference in MAP
change in MAP compared to predose ([2]; 5, 15 and 30 min post dose, 800 μg CNP-38 (eq)/kg sc, CNP-38: 3 of 4 animals): same physiological increase in MAP
MAP ([2]; 5 min post dose, 800 μg CNP-38 (eq)/kg sc): 122.8 ± 5.9 mmHg
MAP ([2]; 15 min post dose, 800 μg CNP-38 (eq)/kg sc): 121.5 ± 7.5 mmHg
MAP ([2]; 30 min post dose, 800 μg CNP-38 (eq)/kg sc): 111.5 ± 13.7 mmHg
MAP ([2]; predose, 800 μg CNP-38 (eq)/kg sc): 106.4 ± 10.7 mmHg
effect on blood pressure ([2]; subcutaneous, dosage equivalent to CNP-38 800 μg/kg): did not decrease blood pressure

Permanent N-Terminal CNP-38 PEG 5 kDa Conjugate [Compound 15e]
EC50 compound/EC50 CNP-38 (NPR-B receptor): >5
IC50 of PEGylated CNP-38/IC50 CNP-38 (NPR-C): 0.53
